Where a chain is given by its changes, count along the chain named. Values belong to the binder of their own block, whether it stands above or below them.
Assays:
human IL-1β [1] = molecular target: T1, human IL-1β (human, UniProt P01584 117-269); assay: SPR (BIAcore), antibody captured on protein A, human IL-1β flowed; HBS-EP pH 7.4, 25 C
T1 construct: mature; the summary says that the SPR values are for mature human IL-1β; also called mature human IL-1β; Interleukin-1β
Protocol: BIAcore™ is an automated biosensor system that measures molecular interactions. (Karlsson, et al. (1991) J. Immunol. Methods 145: 229-240). In these experiments antibody was captured to a surface at low density on a BIAcore™ chip. Ethyl-dimethylaminopropyl-carbodiimide (EDC) was used to couple reactive amino groups to protein A to a flow cell of a carboxy-methyl (CM5) BIAcore sensor chip. Protein A was diluted in sodium acetate buffer, pH 4.5, and immobilized on a flow cell of a CM5 chip using EDC to yield 1000 response units. Unreacted sites were blocked with ehanolamine. A flow rate of 60 μl/min was used. […] Elution was performed with glycine-HCl, pH 1.5. BIAevaluation™ was used to analyze the kinetic data.

human IL-1β [2] = molecular target: T1, human IL-1β; assay: cell-based or functional assay
human IL-1β [3] = molecular target: T1, human IL-1β; assay: cell-based or functional assay; remark: listed apart in the source
human IL-1β [4] = molecular target: T1, human IL-1β; assay: SPR (BIAcore), captured antibody, human IL-1β flowed; protocol for Mu007 as in PCT/US02/21281; HBS-EP pH 7.4, 25 C

Kd (human IL-1β [1]): 4.7 pM | koff (human IL-1β [1]): 0.00022 s⁻¹ | kon (human IL-1β [1]): 4.7e+07 M⁻¹ s⁻¹ | Fold Increase in Potency (against Mu007), T1165.17 cell proliferation assay (human IL-1β [2]): 5 fold | IC50, T1165.17 cell proliferation assay (human IL-1β 0.3 pM) (human IL-1β [2]): 4 pM | IL-6 Serum Levels in mice, human IL-1β 3 µg/kg + antibody 13 µg/kg (human IL-1β [3]): 756 pg/mL | IL-6 Serum Levels in mice, human IL-1β 3 µg/kg + antibody 27 µg/kg (human IL-1β [3]): 509 pg/mL | IL-6 Serum Levels in mice, human IL-1β 3 µg/kg + antibody 81 µg/kg (human IL-1β [3]): 186 pg/mL | IL-6 Serum Levels in mice, human IL-1β 3 µg/kg + antibody 270 µg/kg (human IL-1β [3]): 39.3 pg/mL
B3: U43 (IgG1) (antibody, V domains shown)
VH: QVQLVQSGAEVKKPGSSVKVSCKASGYTFDRYWIEWVRQAPGQGLEWMGEILPGSGDINYNEKFKGRVTITADKSTSTAYMELSSLRSEDTAVYYCARMYYDYDQGFSLWGQGTLVTVSS
VL: DIQMTQSPSSLSASVGDRVTITCKASQDIDRFLSWFQQKPGKAPKSLIYRVKRLVDGVPSRFSGSGSGTDFTLTISSLQPEDFATYYCVQYDEFPYTFGGGTKVEIKR
notes: humanized, IgG1 kappa

Kd (human IL-1β [4]): 6.2 pM | koff (human IL-1β [4]): 0.00016 s⁻¹ | kon (human IL-1β [4]): 2.6e+07 M⁻¹ s⁻¹ | Fold Increase in Potency (against Mu007), T1165.17 cell proliferation assay (human IL-1β [2]): 1 fold | IC50, T1165.17 cell proliferation assay (human IL-1β 0.3 pM) (human IL-1β [2]): 20.6 pM
B5: Mu007 (antibody, V domains shown)
VH: QVQLQQSGAELMKPGASVKISCKATGYTFSRYWIEWIKQRPGHGLEWIGEILPGNGNINYNEKFKGKATISADSSSETAYMQLSSLSSEDSAVYYCSTIYYDYDQGFTYWGQGTLVTVSA
VL: DIKMTQSPSSMYASLGERVTITCKASQDIDRYLSWFQQKPGKSPKTLIYRVKRLVDGVPSRFSGSASGQDYSLTISSLQYEDMGIYYCLQYDEFPYTFGGGTKLEIK

More lines, now with the values behind:

B1: W17 (IgG1) (antibody)
heavy: not shown
light: DIQMTQSPSSLSASVGDRVTITCKFSQDIDRFLSWFQQKPGKAPKSLIYRVKRLVDGVPSRFSGSGSGTDFTLTISSLQPEDFATYYCVQYDEFPYGFGGGTKVEIKRTVAAPSVFIFPPSDEQLKSGTASVVCLLNNFYPREAKVQWKVDNALQSGNSQESVTEQDSKDSTYSLSSTLTLSKADYEKHKVYACEVTHQGLSSPVTKSFNRGEC
notes: humanized, IgG1 kappa
Kd (human IL-1β [1]): 2.8 pM | koff (human IL-1β [1]): 9e-05 s⁻¹ | kon (human IL-1β [1]): 3.1e+07 M⁻¹ s⁻¹ | Fold Increase in Potency (against Mu007), T1165.17 cell proliferation assay (human IL-1β [2]): 11 fold | IC50, T1165.17 cell proliferation assay (human IL-1β 0.3 pM) (human IL-1β [2]): 1.8 pM | IL-6 Serum Levels in mice, human IL-1β 3 µg/kg + antibody 13 µg/kg (human IL-1β [3]): 567 pg/mL | IL-6 Serum Levels in mice, human IL-1β 3 µg/kg + antibody 27 µg/kg (human IL-1β [3]): 410 pg/mL | IL-6 Serum Levels in mice, human IL-1β 3 µg/kg + antibody 81 µg/kg (human IL-1β [3]): 114 pg/mL | IL-6 Serum Levels in mice, human IL-1β 3 µg/kg + antibody 270 µg/kg (human IL-1β [3]): 27.5 pg/mL

B2: W17 (IgG4) (antibody)
heavy: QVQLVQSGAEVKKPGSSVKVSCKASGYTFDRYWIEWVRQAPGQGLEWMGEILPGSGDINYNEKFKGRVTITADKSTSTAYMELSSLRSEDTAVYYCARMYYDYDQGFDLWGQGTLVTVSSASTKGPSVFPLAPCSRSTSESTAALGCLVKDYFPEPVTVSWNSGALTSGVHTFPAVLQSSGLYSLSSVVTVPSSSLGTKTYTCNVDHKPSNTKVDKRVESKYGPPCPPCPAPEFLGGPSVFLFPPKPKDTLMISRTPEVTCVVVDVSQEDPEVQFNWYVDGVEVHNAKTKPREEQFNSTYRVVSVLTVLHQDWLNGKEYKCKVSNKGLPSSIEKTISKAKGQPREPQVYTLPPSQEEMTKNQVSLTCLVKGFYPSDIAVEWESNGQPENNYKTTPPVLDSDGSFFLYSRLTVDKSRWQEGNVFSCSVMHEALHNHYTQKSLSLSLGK
light: B1 light
notes: humanized, IgG4 kappa
Kd (human IL-1β [1]): 3.3 pM | koff (human IL-1β [1]): 0.0001 s⁻¹ | kon (human IL-1β [1]): 3.2e+07 M⁻¹ s⁻¹ | Fold Increase in Potency (against Mu007), T1165.17 cell proliferation assay (human IL-1β [2]): 12 fold | IC50, T1165.17 cell proliferation assay (human IL-1β 0.3 pM) (human IL-1β [2]): 1.7 pM

B4: W13 (IgG1) (antibody, V domains shown)
VH: B3 VH with S108D, L109Y
VL: B3 VL with A25F, S34T, V89I
notes: humanized, IgG1 kappa
Kd (human IL-1β [1]): 2.8 pM | koff (human IL-1β [1]): 0.00017 s⁻¹ | kon (human IL-1β [1]): 6.1e+07 M⁻¹ s⁻¹ | Fold Increase in Potency (against Mu007), T1165.17 cell proliferation assay (human IL-1β [2]): 17 fold | IC50, T1165.17 cell proliferation assay (human IL-1β 0.3 pM) (human IL-1β [2]): 1.2 pM | IL-6 Serum Levels in mice, human IL-1β 3 µg/kg + antibody 13 µg/kg (human IL-1β [3]): 655 pg/mL | IL-6 Serum Levels in mice, human IL-1β 3 µg/kg + antibody 27 µg/kg (human IL-1β [3]): 277 pg/mL | IL-6 Serum Levels in mice, human IL-1β 3 µg/kg + antibody 81 µg/kg (human IL-1β [3]): 129 pg/mL | IL-6 Serum Levels in mice, human IL-1β 3 µg/kg + antibody 270 µg/kg (human IL-1β [3]): 23.4 pg/mL

B6: W18 (IgG1) (antibody, V domains shown)
VH: B3 VH with D57T, S108D, L109N
VL: B3 VL with A25F
notes: humanized, IgG1 kappa
Kd (human IL-1β [1]): 4.2 pM | koff (human IL-1β [1]): 0.00018 s⁻¹ | kon (human IL-1β [1]): 4.1e+07 M⁻¹ s⁻¹ | Fold Increase in Potency (against Mu007), T1165.17 cell proliferation assay (human IL-1β [2]): 10 fold | IC50, T1165.17 cell proliferation assay (human IL-1β 0.3 pM) (human IL-1β [2]): 2 pM | IL-6 Serum Levels in mice, human IL-1β 3 µg/kg + antibody 13 µg/kg (human IL-1β [3]): 398 pg/mL | IL-6 Serum Levels in mice, human IL-1β 3 µg/kg + antibody 27 µg/kg (human IL-1β [3]): 232 pg/mL | IL-6 Serum Levels in mice, human IL-1β 3 µg/kg + antibody 81 µg/kg (human IL-1β [3]): 77.9 pg/mL | IL-6 Serum Levels in mice, human IL-1β 3 µg/kg + antibody 270 µg/kg (human IL-1β [3]): 18 pg/mL

B7: W20 (IgG1) (antibody, V domains shown)
VH: B3 VH with S108D, L109Y
VL: B3 VL with A25F
notes: humanized, IgG1 kappa
Kd (human IL-1β [1]): 2.7 pM | koff (human IL-1β [1]): 0.0001 s⁻¹ | kon (human IL-1β [1]): 3.8e+07 M⁻¹ s⁻¹ | Fold Increase in Potency (against Mu007), T1165.17 cell proliferation assay (human IL-1β [2]): 17 fold | IC50, T1165.17 cell proliferation assay (human IL-1β 0.3 pM) (human IL-1β [2]): 1.2 pM

From patent US20060140932A1 (APPLIED MOLECULAR EVOLUTION, published 2006)
